Reference: patent publication US20260242478A1 (published 2026)

Tests used:
[1] = target: Anti-CD28 Fab (SEQ ID NOs: 696, 697); assay: phage binding ELISA; biotinylated anti-CD28 Fab on neutravidin plate, clonal phage supernatant, anti-M13 HRP;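 further: crude clonal phage supernatants screened after wells were preincubated either with CD28 antigen in blocking buffer or with blocking buffer only, phage added without washing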
Target sequence in this assay (VH, as listed by the source, chain 1 of 2): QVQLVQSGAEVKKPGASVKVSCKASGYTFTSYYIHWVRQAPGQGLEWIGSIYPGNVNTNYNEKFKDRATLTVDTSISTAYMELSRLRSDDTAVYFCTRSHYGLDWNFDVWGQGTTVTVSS
Target sequence in this assay (VL, as listed by the source, chain 2 of 2): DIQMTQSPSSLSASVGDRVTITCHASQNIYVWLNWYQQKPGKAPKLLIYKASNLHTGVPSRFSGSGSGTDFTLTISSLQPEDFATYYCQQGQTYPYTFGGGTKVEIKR
Description: (§1) After panning, phage infected bacteria were plated out and colonies picked into 96 well blocks. Clonal phage was then amplified and separated from bacterial cells via centrifugation.
(§2) Clonal phage were harvested as crude supematants and screened via standard ELISAs. […] Prior to the addition of clonal phage, wells were incubated with blocking buffer and CD28 antigen or blocking buffer alone. Without washing or aspirating, clonal phage supematants were then added to the wells and incubated for a short time. Wells were then washed followed by detection of bound phage using a horse radish conjugated anti-M13 antibody. Clonal phage of interest were then sent for sequence analysis.

[2] = target: Anti-CD28 Fab (SEQ ID NOs: 696, 697); assay: phage binding ELISA; captured anti-CD28 Fab pre-incubated with CD28 antigen as competitor, anti-M13 HRP
Target sequence in this assay (VH, as listed by the source, chain 1 of 2): as the sequence (VH, as listed by the source, chain 1 of 2) above
Target sequence in this assay (VL, as listed by the source, chain 2 of 2): as the sequence (VL, as listed by the source, chain 2 of 2) above
Description: as §1, §2

[3] = target: T1, Anti-CD28 Fab (SEQ ID NOs: 696, 697); assay: phage ELISA; biotinylated anti-CD28 Fab on neutravidin plate, clonal phage supernatant, anti-M13 HRP detection;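 further: crude supernatants of single phage clones picked after panning were screened for binding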
T1 construct: In the phage ELISA the Fab was biotinylated and captured on neutravidin coated plates
T1 sequence (VH, as listed by the source, chain 1 of 2): as the sequence (VH, as listed by the source, chain 1 of 2) above
T1 sequence (VL, as listed by the source, chain 2 of 2): as the sequence (VL, as listed by the source, chain 2 of 2) above

[4] = target: T1, Anti-CD28 Fab (SEQ ID NOs: 696, 697); assay: phage ELISA; plate-bound anti-CD28 Fab pre-incubated with CD28 antigen as competitor, anti-M13 HRP detection
Description: as §1, §2

[5] = target: T2, Anti-CD28 Fab (SEQ ID NOs: 696, 697); assay: phage ELISA; captured anti-CD28 Fab pre-incubated with CD28 antigen as competitor, anti-M13 HRP;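 further: crude clonal phage supernatants added without washing after CD28 pre-incubation, bound phage detected with HRP anti-M13 antibody, reference wells got blocking buffer lacking CD28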
T2 construct: In the phage ELISA the Fab was biotinylated and captured on neutravidin coated plates
T2 sequence (VH, as listed by the source, chain 1 of 2): as the sequence (VH, as listed by the source, chain 1 of 2) above
T2 sequence (VL, as listed by the source, chain 2 of 2): as the sequence (VL, as listed by the source, chain 2 of 2) above
Description: as §1, §2

[6] = target: T2, Anti-CD28 Fab (SEQ ID NOs: 696, 697); assay: phage ELISA; biotinylated anti-CD28 Fab on neutravidin plate, clonal phage supernatant, anti-M13 HRP
Description: as §1, §2

[7] = target: anti-CD28 Fab (SEQ ID NOs: 696, 697); assay: phage binding ELISA; Fab on plate pre-incubated with CD28 antigen as competitor, anti-M13 HRP detection;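 further: crude clonal phage supernatants screened by ELISA, with comparison wells pre-incubated in blocking buffer only, lacking CD28 antigen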
Description: as §1, §2

[8] = target: anti-CD28 Fab (SEQ ID NOs: 696, 697); assay: phage binding ELISA; biotinylated Fab on neutravidin plate, clonal phage supernatant, anti-M13 HRP detection;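 further: phage from clones picked after panning, added to wells pre-incubated with blocking buffer with or without CD28 antigen, then briefly incubated and washed before detection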
Description: as §1, §2

Sequence of anti-CD28 Fab (SEQ ID NOs: 696, 697) (VH, as listed by the source, chain 1 of 2): as the sequence (VH, as listed by the source, chain 1 of 2) above
Sequence of anti-CD28 Fab (SEQ ID NOs: 696, 697) (VL, as listed by the source, chain 2 of 2): as the sequence (VL, as listed by the source, chain 2 of 2) above

Binder: YCEGHSPEYMYKCL [Phage-589]
- Anti-CD28 Fab (SEQ ID NOs: 696, 697) signal [1]: 2.23
- Anti-CD28 Fab signal in the presence of CD28 [2]: 0.1

Binder: YCEGHTVEYMAKCL (Tested as clonal phage supernatant) [Phage-599]
- Phage binding ELISA, Anti-CD28 Fab signal [3]: 2.2
- Phage binding ELISA, Anti-CD28 Fab signal in the presence of CD28 [4]: 0.08

Binder: YCEGHLPMYMDKCL [Phage-591]
- Anti-CD28 Fab (SEQ ID NOs: 696, 697) signal [1]: 2.22
- Anti-CD28 Fab signal in the presence of CD28 [2]: 0.07

B1: Phage-612 (peptide)
peptide: YCDGHSIEYRWKCL
notes: Clonal phage of the Peptide-87 library, tested as crude phage supernatant; not shown: pIII of the bacteriophage to which the peptide is fused
- Anti-CD28 Fab signal in the presence of CD28 (phage binding ELISA) [5]: 0.06
- Anti-CD28 Fab signal (phage binding ELISA) [6]: 2.18

B2: Phage-608 (peptide)
peptide: YCDGHLPEYMHKCL
notes: as for B1
- Anti-CD28 Fab signal in the presence of CD28 (phage binding ELISA) [5]: 0.09
- Anti-CD28 Fab signal (phage binding ELISA) [6]: 2.19

Binder: YCDGHLPEYLPKCL (Tested as clonal phage supernatant) [Phage-603]
- Phage binding ELISA, Anti-CD28 Fab signal [3]: 2.19
- Phage binding ELISA, Anti-CD28 Fab signal in the presence of CD28 [4]: 0.09

B3: Phage-613 (peptide)
peptide: YCEGHAEEYMQKCL
notes: as for B1
- Anti-CD28 Fab signal in the presence of CD28 (phage binding ELISA) [5]: 0.06
- Anti-CD28 Fab signal (phage binding ELISA) [6]: 2.18

Binder: YCDGHIEEYRAKCL (Tested as clonal phage supernatant) [Phage-596]
- Phage binding ELISA, Anti-CD28 Fab signal [3]: 2.21
- Phage binding ELISA, Anti-CD28 Fab signal in the presence of CD28 [4]: 0.07

B4: Phage-605 (peptide)
peptide: YCDGHLPEYLSKCL
notes: as for B1
- Anti-CD28 Fab signal in the presence of CD28 (phage binding ELISA) [5]: 0.07
- Anti-CD28 Fab signal (phage binding ELISA) [6]: 2.19

Binder: YCQGHLPEYMNKCL [Phage-581]
- Anti-CD28 Fab (SEQ ID NOs: 696, 697) signal [1]: 2.24
- Anti-CD28 Fab signal in the presence of CD28 [2]: 0.08

Binder: YCDGHAPEYMEKCM (Tested as clonal phage supernatant) [Phage-598]
- Phage binding ELISA, Anti-CD28 Fab signal [3]: 2.21
- Phage binding ELISA, Anti-CD28 Fab signal in the presence of CD28 [4]: 0.07

B5: Phage-617 (peptide)
peptide: YCDGHTQEYIAKCL
notes: as for B1
- Anti-CD28 Fab signal in the presence of CD28 (phage binding ELISA) [5]: 0.06
- Anti-CD28 Fab signal (phage binding ELISA) [6]: 2.17

B6: Phage-610 (peptide)
peptide: YCDGHLPQYKAKCL
notes: as for B1
- Anti-CD28 Fab signal in the presence of CD28 (phage binding ELISA) [5]: 0.09
- Anti-CD28 Fab signal (phage binding ELISA) [6]: 2.19

B7: Phage-611 (peptide)
peptide: YCDGHAVEYMAKCL
notes: as for B1
- Anti-CD28 Fab signal in the presence of CD28 (phage binding ELISA) [5]: 0.1
- Anti-CD28 Fab signal (phage binding ELISA) [6]: 2.18

Binder: YCDGHVAEYRDKCL (tested as crude phage supernatant) [Phage-623]
- Anti-CD28 Fab signal in the presence of CD28 [7]: 0.07
- Anti-CD28 Fab (SEQ ID NOs: 696, 697) signal [8]: 2.17

Binder: YCEGHLPVYMWKCL (tested as crude phage supernatant) [Phage-619]
- Anti-CD28 Fab signal in the presence of CD28 [7]: 0.09
- Anti-CD28 Fab (SEQ ID NOs: 696, 697) signal [8]: 2.17

B8: Phage-615 (peptide)
peptide: YCDGHLEEYKQKCL
notes: as for B1
- Anti-CD28 Fab signal in the presence of CD28 (phage binding ELISA) [5]: 0.08
- Anti-CD28 Fab signal (phage binding ELISA) [6]: 2.18

Binder: YCQGHLPIYMEKCL [Phage-583]
- Anti-CD28 Fab (SEQ ID NOs: 696, 697) signal [1]: 2.24
- Anti-CD28 Fab signal in the presence of CD28 [2]: 0.09

Binder: YCDGHSQEYMAKCL [Phage-582]
- Anti-CD28 Fab (SEQ ID NOs: 696, 697) signal [1]: 2.24
- Anti-CD28 Fab signal in the presence of CD28 [2]: 0.08

Binder: YCDGHSAEYMAKCL [Phage-588]
- Anti-CD28 Fab (SEQ ID NOs: 696, 697) signal [1]: 2.23
- Anti-CD28 Fab signal in the presence of CD28 [2]: 0.07

Binder: YCEGHAWEYMAKCL [Phage-580]
- Anti-CD28 Fab (SEQ ID NOs: 696, 697) signal [1]: 2.24
- Anti-CD28 Fab signal in the presence of CD28 [2]: 0.07

B9: Phage-609 (peptide)
peptide: YCDGHLPEYIEKCL
notes: as for B1
- Anti-CD28 Fab signal in the presence of CD28 (phage binding ELISA) [5]: 0.07
- Anti-CD28 Fab signal (phage binding ELISA) [6]: 2.19

B10: Phage-607 (peptide)
peptide: YCDGHSPLYIWKCL
notes: as for B1
- Anti-CD28 Fab signal in the presence of CD28 (phage binding ELISA) [5]: 0.09
- Anti-CD28 Fab signal (phage binding ELISA) [6]: 2.19

B11: Phage-614 (peptide)
peptide: YCDGHAPEYIYKCL
notes: as for B1
- Anti-CD28 Fab signal in the presence of CD28 (phage binding ELISA) [5]: 0.06
- Anti-CD28 Fab signal (phage binding ELISA) [6]: 2.18

Binder: YCDGHMPEYIAKCL (Tested as clonal phage supernatant) [Phage-604]
- Phage binding ELISA, Anti-CD28 Fab signal [3]: 2.19
- Phage binding ELISA, Anti-CD28 Fab signal in the presence of CD28 [4]: 0.08

Binder: YCDGHMPEYMWKCL (tested as crude phage supernatant) [Phage-620]
- Anti-CD28 Fab signal in the presence of CD28 [7]: 0.09
- Anti-CD28 Fab (SEQ ID NOs: 696, 697) signal [8]: 2.17

Binder: YCDGHLPQYMNKCL [Phage-585]
- Anti-CD28 Fab (SEQ ID NOs: 696, 697) signal [1]: 2.23
- Anti-CD28 Fab signal in the presence of CD28 [2]: 0.1

Binder: YCAGHAPEYIQKCL (tested as crude phage supernatant) [Phage-622]
- Anti-CD28 Fab signal in the presence of CD28 [7]: 0.09
- Anti-CD28 Fab (SEQ ID NOs: 696, 697) signal [8]: 2.17

Binder: YCAGHAPEYMQKCL (tested as crude phage supernatant) [Phage-624]
- Anti-CD28 Fab signal in the presence of CD28 [7]: 0.07
- Anti-CD28 Fab (SEQ ID NOs: 696, 697) signal [8]: 2.16

Binder: YCDGHTQEYMAKCL (tested as crude phage supernatant) [Phage-618]
- Anti-CD28 Fab signal in the presence of CD28 [7]: 0.07
- Anti-CD28 Fab (SEQ ID NOs: 696, 697) signal [8]: 2.17

Binder: YCDGHLPLYLAKCL [Phage-584]
- Anti-CD28 Fab (SEQ ID NOs: 696, 697) signal [1]: 2.23
- Anti-CD28 Fab signal in the presence of CD28 [2]: 0.09

Binder: YCAGHSPEYMTKCL (tested as crude phage supernatant) [Phage-621]
- Anti-CD28 Fab signal in the presence of CD28 [7]: 0.09
- Anti-CD28 Fab (SEQ ID NOs: 696, 697) signal [8]: 2.17

Binder: YCDGHAPEYMLKCL (Tested as clonal phage supernatant) [Phage-601]
- Phage binding ELISA, Anti-CD28 Fab signal [3]: 2.2
- Phage binding ELISA, Anti-CD28 Fab signal in the presence of CD28 [4]: 0.07

Binder: YCDGHAPDYMLKCL (Tested as clonal phage supernatant) [Phage-602]
- Phage binding ELISA, Anti-CD28 Fab signal [3]: 2.2
- Phage binding ELISA, Anti-CD28 Fab signal in the presence of CD28 [4]: 0.09

Binder: YCEGHAPEYMLKCL (Tested as clonal phage supernatant) [Phage-597]
- Phage binding ELISA, Anti-CD28 Fab signal [3]: 2.21
- Phage binding ELISA, Anti-CD28 Fab signal in the presence of CD28 [4]: 0.07

Binder: YCEGHLPEYMQKCM [Phage-587]
- Anti-CD28 Fab (SEQ ID NOs: 696, 697) signal [1]: 2.23
- Anti-CD28 Fab signal in the presence of CD28 [2]: 0.08

Binder: YCDGHKAEYMDKCL (Tested as clonal phage supernatant) [Phage-600]
- Phage binding ELISA, Anti-CD28 Fab signal [3]: 2.2
- Phage binding ELISA, Anti-CD28 Fab signal in the presence of CD28 [4]: 0.07

Binder: YCDGHRGEYLQKCL (Tested as clonal phage supernatant) [Phage-592]
- Phage binding ELISA, Anti-CD28 Fab signal [3]: 2.22
- Phage binding ELISA, Anti-CD28 Fab signal in the presence of CD28 [4]: 0.09

Binder: YCEGHAPMYMWKCL [Phage-586]
- Anti-CD28 Fab (SEQ ID NOs: 696, 697) signal [1]: 2.23
- Anti-CD28 Fab signal in the presence of CD28 [2]: 0.08

Binder: YCEGHSPQYMWKCL (Tested as clonal phage supernatant) [Phage-593]
- Phage binding ELISA, Anti-CD28 Fab signal [3]: 2.22
- Phage binding ELISA, Anti-CD28 Fab signal in the presence of CD28 [4]: 0.12

B12: Phage-606 (peptide)
peptide: YCAGHLPEYFLKCL
notes: as for B1
- Anti-CD28 Fab signal in the presence of CD28 (phage binding ELISA) [5]: 0.08
- Anti-CD28 Fab signal (phage binding ELISA) [6]: 2.19

Binder: YCEGHLPQYMKKCL (Tested as clonal phage supernatant) [Phage-595]
- Phage binding ELISA, Anti-CD28 Fab signal [3]: 2.22
- Phage binding ELISA, Anti-CD28 Fab signal in the presence of CD28 [4]: 0.1

Binder: YCDGHSMEYMSKCL [Phage-590]
- Anti-CD28 Fab (SEQ ID NOs: 696, 697) signal [1]: 2.22
- Anti-CD28 Fab signal in the presence of CD28 [2]: 0.09

B13: Phage-616 (peptide)
peptide: YCMGHLPQYMQKCL
notes: as for B1
- Anti-CD28 Fab signal in the presence of CD28 (phage binding ELISA) [5]: 0.11
- Anti-CD28 Fab signal (phage binding ELISA) [6]: 2.18

Binder: YCEGHAAEYMTKCL (Tested as clonal phage supernatant) [Phage-594]
- Phage binding ELISA, Anti-CD28 Fab signal [3]: 2.22
- Phage binding ELISA, Anti-CD28 Fab signal in the presence of CD28 [4]: 0.08
